Data on 31 molecules can be found in PMC9172573, “Covalent labeling of a chromatin reader domain using proximity-reactive cyclic peptides†” (Chemical Science, 2022).

Data set [1] concerns the target His6-MBP-PHD3 (PHD3 domain of histone demethylase KDM5A) (UniProt P29375). As to the kind of experiment: fluorescence polarisation; competition: recombinant His6-MBP-PHD3 incubated with the 10mer H3K4me3 tracer (C-terminal fluorescent label), then varying concentrations of the competing peptide; Ki.
For data set [2] the following is noted: oxyguanidino / guanidino side-chain group; cited from earlier work.
The target in data set [3] is recombinant His6-MBP-PHD3 (PHD3 domain of KDM5A) (Homo sapiens, UniProt P29375).
Data set [4] concerns the target His6-MBP-PHD3 (PHD3 domain of histone demethylase KDM5A) (UniProt P29375). Briefly: FP.
The subject of a further data set is trypsin. As to the kind of experiment: trypsin stability assay. The data set is classed as in vitro ADME. As to conditions: peptide and trypsin 1:1 w/w, 1x PBS, RT, HPLC. The procedure:
Trypsin stability assay: Peptide and trypsin (1:1 w/w) were mixed in 1x PBS buffer and the resulting mixture was incubated at RT. Proteolysis reactions at a given time point was quenched by adding HCl. The proteolysis process was monitored by subjecting the quenched mixture onto r everse-phase HPLC column monitoring at 2 14 nm [H2O (A):MeCN (B); 5% to 100% solvent B over 23 min].
Fig. S2a: Chromatograms of WT H3K4me3 hexapeptide ( 1) before and after incubation with trypsin ( t = < 5 min).
(1 picture or pasted object on this page, not shown here)

The target in data set [5] is T1, His6-MBP-PHD3 (PHD3 domain of histone demethylase KDM5A) (UniProt P29375 1609-1659).
T1 chain: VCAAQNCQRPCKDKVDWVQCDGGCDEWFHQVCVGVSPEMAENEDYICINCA
As to the kind of experiment: FP.

For data set [6], the target named is T2, PHD3 double mutant K1620A/K1622A (UniProt P29375 1609-1659, K1620A | K1622A).
T2 sequence: T1 chain with K12A, K14A
As to the kind of experiment: FP.

In data set [7] the target is T1, His6-MBP-PHD3 (PHD3 domain of histone …). As to the kind of experiment: FP.
The next data set concerns the target T3, PHD3 K1622A (UniProt P29375 1609-1659, K1622A).
T3 sequence: T1 chain with K14A
As to the kind of experiment: FP.

In another data set the target is T4, PHD3 K1620A (UniProt P29375 1609-1659, K1620A).
T4 sequence: T1 chain with K12A
As to the kind of experiment: FP.

Data set [8] deals with T1, His6-MBP-PHD3 (PHD3 domain of histone …). As to the kind of experiment: FP.
Data set [9] concerns the target T5, His6-MBP-PHD3 (PHD3 domain of histone demethylase KDM5A) (UniProt P29375 1609-1659).
T5 construct: KDM5A, third (C-terminal) PHD finger, PHD3; holds K1620, K1622, W1625, W1635; also called recombinant His6-MBP-PHD3 protein; KDM5A-PHD3; source: recombinant; not shown: His6, N-terminal, kept; MBP, N-terminal, kept
T5 sequence: T1 chain
As to the kind of experiment: fluorescence polarisation; competition: recombinant His6-MBP-PHD3 incubated with the 10mer H3K4me3 tracer (C-terminal fluorescent label), then varying concentrations of the competing peptide; Ki. Particulars: both partners purified.

Numbering of substitutions follows the chain as printed. Names may count otherwise. Square brackets hold non-standard residues; d marks the D form. Ends that are not written are not given here. Peptide text beside a SMILES is read from it. Lys(Me3) = C[N+](C)(C)CCCC[C@H](N)C(=O)O; fluorescent label = not defined here; Arg(Me) = CNC(=N)NCCC[C@H](N)C(=O)O; Aib = CC(C)(N)C(=O)O; Me3 = trimethyl

On to “H3 6mer peptide 14 (K4me3 replaced with homo-arginine) (from UniProt P68431 2-7)”, for which the Ki in data set [1] is 690 nM.

In the case of `N=C(N)NCCC[C@H](N)C(=O)O` [arginine], the pKa in data set [2] is approximately 12.48.

On to `NC(N)=NCCCC[C@H](N)C(=O)O` [homo-arginine], for which, in data set [2], the pKa is listed as approximately 12.48.

Turning to `C[C@@H](O)[C@H](NC(=O)[C@H](CCC(N)=O)NC(=O)[C@H](CCCC[N+](C)(C)C)NC(=O)[C@@H](NC(=O)[C@H](CCCNC(=N)N)NC(=O)[C@@H](N)CO)[C@@H](C)O)C(N)=O` [compound 5] (H-SRT[Lys(Me3)]QT-NH2), the Ki in data set [3] amounted to 1700 ± 300 nM.

Turning to `C[C@H](N)C(=O)N[C@@H](CCCNC(=N)N)C(=O)N[C@H](C(=O)N[C@@H](CCCC[N+](C)(C)C)C(=O)N[C@@H](CCC(N)=O)C(=O)N[C@@H](C)C(=O)N[C@@H](C)C(=O)N[C@@H](CCCNC(=N)N)C(=O)N[C@@H](CCCCN)C(=O)N[C@@H](CO)C(N)=O)[C@@H](C)O` [T6A], the Ki in data set [3] turned out to be 150 ± 47 nM.

In the case of “H3K4me3 6mer peptide 4 (A1 sidechain modified) (from UniProt P68431 2-7)”, in [4], the Ki was 12000 nM.

Take `N=C(N)NOCC[C@H](N)C(=O)O` [canavanine]: in data set [2], the pKa was 7.01.

On to `C[C@@H](O)[C@H](NC(=O)[C@H](CCC(N)=O)NC(=O)[C@H](CCCC[N+](C)(C)C)NC(=O)[C@@H](NC(=O)[C@H](CCCNC(=N)N)NC(=O)[C@@H]1CCCN1)[C@@H](C)O)C(N)=O` [compound 6] (H-PRT[Lys(Me3)]QT-NH2), for which the Ki in data set [3] came out at 2700 ± 640 nM.

Consider `C[C@H](N)C(=O)N[C@@H](CCCNC(=N)N)C(=O)N[C@H](C(=O)N[C@@H](CCCC[N+](C)(C)C)C(=O)N[C@@H](CCC(N)=O)C(=O)N[C@H](C(N)=O)[C@@H](C)O)[C@@H](C)O` [compound 1, ARTK(me3)QT] (H-ART[Lys(Me3)]QT-NH2), for which the tryptic stability entry in the data set with trypsin is on record as “highly susceptible to tryptic digestion”.

Turning to “H3K4me3 6mer peptide 9 (R2 replaced with homo-arginine) (from UniProt P68431 2-7)”, the Ki in [1] was 740 nM.

As to “H3K4me3 6mer peptide 8 (R2 replaced with canavanine) (from UniProt P68431 2-7)”, the Ki in [1] is 2300 nM.

As to ART[Lys(Me3)]QTA (not fully specified) [7mer], the Ki in data set [5] amounted to 43 nM.

Consider ART[Lys(Me3)]QTARKS-{fluorescent label} (reading uncertain) [10mer H3K4me3 tracer containing a C-terminal fluorescent label], for which the Kd in data set [6] is 71 nM; in [7], 83 nM; with PHD3 K1622A, 160 nM; in the data set with PHD3 K1620A it was 58 nM.

In the case of [Aib]RT[Lys(Me3)]QT [2-aminoisobutyric acid-containing peptide 7], affinity in data set [8] was put at a Ki of 310 nM.

The molecule ART[Lys(Me3)]YT [H3K4me3 6mer peptide 15 (Q5 replaced with tyrosine)] returned a Ki in [8] of 440 nM.

The molecule ARV[Lys(Me3)]QT [H3K4me3 6mer peptide 13 (T3V)] showed a Ki in data set [8] of 240 nM.

Take ART[Lys(Me3)]ATARKS [H3K4me3 10mer peptide Q5A]: the Ki in data set [5] was determined as 59 nM.

The molecule ART[Lys(Me3)]QTAR (not fully specified) [8mer] displayed a Ki in [5] of 54 nM.

With ARTK(Me3)QT [hexapeptide ARTK(me3)QT (1)], the Ki in data set [9] stood at 130 nM.

B1: sulfone cyclopeptide C-20c (peptide, UniProt P68431 2-7, looked up)
peptide: ARTKQC
modifications: not fully specified; Cys at 6; ε-amino group of dimethyllysine 4 stapled to the Cys6 sulfur with 1,2-bis(bromomethyl)benzene, thioether oxidised to the sulfone
notes: Full-length, cleaved form of intermediate C-20; also called series C; source: synthetic peptide, Fmoc-SPPS on Rink amide resin
In the case of B1, in data set [9], the “fold decrease in binding affinity (against the thioether C-18c, as read)” value is 5 fold.

As for Ac-ART[Lys(Me3)]QT [N-terminally acetylated H3K4me3 6mer peptide (2)], the Ki in [8] worked out at 76000 nM.

As for AAT[Lys(Me3)]QTARKS [H3K4me3 10mer peptide, R2 replaced with Ala], in data set [5], the Ki was found to be 560 nM.

As to ART[Lys(Me3)]QTARK (not fully specified) [9mer], in [5], the Ki came out at 15 nM.

Consider ARA[Lys(Me3)]QTARKS [H3K4me3 10mer peptide, T3 replaced with Ala], for which the affinity in [5] corresponds to a Ki of 650 nM.

As for ART[Lys(Me3)]QTARAS [K9A], in data set [5], the Ki is 28 nM.

Consider Me-ART[Lys(Me3)]QT [N-terminally methylated H3K4me3 6mer peptide (3)], for which the Ki in [8] worked out at 150 nM.

In turn, ART[Lys(Me3)]QTAAKS [R8A] registered a Ki in data set [5] of 69 nM.

ARTAQTARKS [H3 10mer peptide, K4 replaced with Ala] returned a Ki in data set [5] of 30000 nM.

Turning to ART[Lys(Me3)] (not fully specified) [4mer], the Ki in data set [5] was 2700 nM.

A[Arg(Me)]T[Lys(Me3)]QT [H3K4me3 6mer peptide 10 (R2 guanidino group monomethylated)] registered a Ki in data set [8] of 220 nM.

As for ART[Lys(Me3)]QTARKA [S10A], the Ki in data set [5] turned out to be 12 nM.
